Results as given in US20250304927A1, “PRO-PEPTIDE VARIANTS FOR MODULATING ACTIVITY OF TRANSGLUTAMINASES” (CURIE CO. INC., priority 2022, published 2025).

T1: thermostable variant of Streptomyces mobaraensis transglutaminase (Streptomyces mobaraensis, UniProt P81453 79-407)
T1 sequence: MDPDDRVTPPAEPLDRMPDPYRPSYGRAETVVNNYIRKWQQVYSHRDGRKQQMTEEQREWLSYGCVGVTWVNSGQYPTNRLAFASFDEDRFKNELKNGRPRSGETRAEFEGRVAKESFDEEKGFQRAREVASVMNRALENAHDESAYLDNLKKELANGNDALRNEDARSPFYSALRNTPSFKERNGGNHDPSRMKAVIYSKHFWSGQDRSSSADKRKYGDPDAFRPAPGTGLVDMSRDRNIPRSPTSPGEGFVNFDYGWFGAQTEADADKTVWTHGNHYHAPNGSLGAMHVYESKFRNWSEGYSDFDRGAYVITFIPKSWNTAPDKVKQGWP


How the values were obtained:
[1] = target: T1, thermostable variant of Streptomyces …; assay: cell-based or functional assay
[2] = target: T1, thermostable variant of Streptomyces …; assay: cell-based or functional assay; remark: listed apart in the source

Row | Binder | Improvement in pH responsiveness of inhibitory peptide relative to WT [1] [fold] | Improvement in binding affinity of inhibitory peptide relative to WT [2] [fold]
1 | MDNGAGEETKSYAETYRLTADDVANINALNESAPAAS [pro-peptide truncation variant ΔS38-P46] | > 1.2 | –
2 | MINGAGEETKSYAETYRLTADDVANINALNESAPAASSAGPSFRAP [pro-peptide variant D2I] | > 1.2 | > 1.2
3 | MDNGAGHETKSYAETYRLTADDVANINALNESAPAASSAGPSFRAP [pro-peptide variant E7H] | – | > 1.2
4 | MDNGAGEETKSYAKTYRLTADDVANINALNESAPAASSAGPSFRAP [pro-peptide variant E14K] | > 5 | –
5 | MDNGAGEETKSYAETYRLTADDVANVNALNESAPAASSAGPSFRAP [pro-peptide variant I26V] | – | > 1.2
6 | MDNGAGEETKSYAETYRLTATDVANINALNESAPAASSAGPSFRAP [pro-peptide variant D21T] | > 1.2 | –
7 | MDNGAGEITKSYAETYRLTADDVANINALNESAPAASSAGPSFRAP [pro-peptide variant E8I] | – | > 1.2
8 | MDNGAGEETKSYAETYRLTAKDVANINALNESAPAASSAGPSFRAP [pro-peptide variant D21K] | – | > 1.2
9 | MDNGAGEETKSYAETYRLTADNVANINALNESAPAASSAGPSFRAP [pro-peptide variant D22N] | – | > 1.2
10 | MDNGAGEETKSYAETYRCTADDVANINALNESAPAASSAGPSFRAP [pro-peptide variant L18C] | > 1.2 | –
11 | MDNGAGNETKSYAETYRLTADDVANINALNESAPAASSAGPSFRAP [pro-peptide variant E7N] | > 5 | > 1.2
12 | MDNGAGRETKSYAETYRLTADDVANINALNESAPAASSAGPSFRAP [pro-peptide variant E7R] | – | > 1.2
13 | MDNGAGEETKSYAETYRLTADHVANINALNESAPAASSAGPSFRAP [pro-peptide variant D22H] | – | > 1.2
14 | MDNGAGEETKSYAYTYRLTADDVANINALNESAPAASSAGPSFRAP [pro-peptide variant E14Y] | > 5 | –
15 | MDNGAGEVTKSYAETYRLTADDVANINALNESAPAASSAGPSFRAP [pro-peptide variant E8V] | – | > 1.2
16 | MDNGAGDETKSYAETYRLTADDVANINALNESAPAASSAGPSFRAP [pro-peptide variant E7D] | – | > 1.2
17 | MDNGAGEETKSYAETYRLTADSVANINALNESAPAASSAGPSFRAP [pro-peptide variant D22S] | > 1.2 | –
18 | MFNGAGEETKSYAETYRLTADDVANINALNESAPAASSAGPSFRAP [pro-peptide variant D2F] | – | > 1.2
19 | MDNGAGEETKSYAETYRLTADDVCNINALNESAPAASSAGPSFRAP [pro-peptide variant A24C] | > 1.2 | –
20 | MDNGAGEETKSYAETYRLTADDVMNINALNESAPAASSAGPSFRAP [pro-peptide variant A24M] | – | > 1.2

Next, values leading:

Row | Improvement in pH responsiveness of inhibitory peptide relative to WT [1] [fold] | Improvement in binding affinity of inhibitory peptide relative to WT [2] [fold] | Binder
21 | – | > 1.2 | MDNGAGEETKSYAEQYRLTADDVANINALNESAPAASSAGPSFRAP [pro-peptide variant T15Q]
22 | > 1.2 | – | MDNGAGEETKSYAETYRRTADDVANINALNESAPAASSAGPSFRAP [pro-peptide variant L18R]
23 | > 1.2 | – | MDNGAGEETKTYAETYRLTADDVANINALNESAPAASSAGPSFRAP [pro-peptide variant S11T]
24 | > 1.2 | – | MDNGAGEETKSRAETYRLTADDVANINALNESAPAASSAGPSFRAP [pro-peptide variant Y12R]
25 | > 1.2 | – | MDNGAGEETKSYAETYRVTADDVANINALNESAPAASSAGPSFRAP [pro-peptide variant L18V]
26 | > 1.2 | – | MDNGAGEETKAYAETYRLTADDVANINALNESAPAASSAGPSFRAP [pro-peptide variant S11A]
27 | > 5 | – | MDNGAGEETKSYAETYRLTADDVANINALNESAPAASSAGPSFRAG [pro-peptide variant P46G]
28 | – | > 1.2 | MDNGAGEEPKSYAETYRLTADDVANINALNESAPAASSAGPSFRAP [pro-peptide variant T9P]
29 | > 1.2 | – | MDNGAGEETKSYAETYRLTADDVANINALNESAPAASSAGPSFRAF [pro-peptide variant P46F]
30 | – | > 1.2 | MDNGAGEECKSYAETYRLTADDVANINALNESAPAASSAGPSFRAP [pro-peptide variant T9C]
31 | – | > 1.2 | MDNGAGEEIKSYAETYRLTADDVANINALNESAPAASSAGPSFRAP [pro-peptide variant T9I]
32 | > 1.2 | – | MDNGAGEESKSYAETYRLTADDVANINALNESAPAASSAGPSFRAP [pro-peptide variant T9S]
33 | – | > 1.2 | MDNGAGEEDKSYAETYRLTADDVANINALNESAPAASSAGPSFRAP [pro-peptide variant T9D]
34 | – | > 1.2 | MDNGAGEEEKSYAETYRLTADDVANINALNESAPAASSAGPSFRAP [pro-peptide variant T9E]
35 | > 1.2 | – | MDNGAGEETKSYAETYRLTADDVANINALNESAPAASRAGPSFRAP [pro-peptide variant S38R]
36 | > 1.2 | – | MDNGAGEETKSYAETYRLTADDVANINALNESAPAASSAGPSFRAM [pro-peptide variant P46M]
37 | > 1.2 | – | MDNGAGEETKSYAETYRGTADDVANINALNESAPAASSAGPSFRAP [pro-peptide variant L18G]
38 | – | > 1.2 | MDNGAGEETKSYAETYRFTADDVANINALNESAPAASSAGPSFRAP [pro-peptide variant L18F]
